According to article doi:10.1101/177840:

Biological target: His-tagged full-length Ajuba (UniProt Q96IF1)
Assay: pull-down

Sequence of RPA70-OB½ABC, aa 234-612 (P27694 234-612): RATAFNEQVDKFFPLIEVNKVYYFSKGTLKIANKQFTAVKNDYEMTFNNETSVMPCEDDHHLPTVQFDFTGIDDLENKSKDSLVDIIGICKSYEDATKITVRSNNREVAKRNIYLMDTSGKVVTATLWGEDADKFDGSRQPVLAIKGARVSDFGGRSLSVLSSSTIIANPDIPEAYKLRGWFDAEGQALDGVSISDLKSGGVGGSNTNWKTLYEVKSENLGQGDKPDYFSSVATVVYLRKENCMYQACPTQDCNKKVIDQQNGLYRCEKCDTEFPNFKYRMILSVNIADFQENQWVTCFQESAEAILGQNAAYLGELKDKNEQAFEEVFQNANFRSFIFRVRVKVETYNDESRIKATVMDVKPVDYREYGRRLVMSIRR

## RPA70-OB½ABC, aa 234-612 (from UniProt P27694 234-612) (domain or fragment)
  pull down relative to full-length RPA70 (100%): 58.7%
